Experimental data as given in US20160052979.
pKd: −log10 of the molar value.

Assays:
[1] = test system: T1, TZIP (synthetic); experiment: EMSA; details: unit not stated, densitometry
T1 sequence: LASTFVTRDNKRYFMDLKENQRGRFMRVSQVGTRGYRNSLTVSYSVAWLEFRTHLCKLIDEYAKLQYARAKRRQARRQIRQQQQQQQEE

[2] = test system: Purα (PURA); experiment: EMSA; details: unit not stated, densitometry

Substance	pKd ([1]; printed 5.5×1010, exponent sign lost, 5 mM DTT, 5 mM EDTA, 0.5% Tween 20, TZIP alters Purα shift and stimulates …)	pKd ([2]; 5 mM DTT, 5 mM EDTA, 0.5% Tween 20)	pKd ([1]; printed 9.5×1010, exponent sign lost, TZIP stimulates Purα binding)	pKd ([2]; printed 1.9×109, exponent sign lost)
ALS ssDNA (C9ORF72 GGGGCC hexanucleotide repeat)	9.26	7.80	–	–
FXS ssDNA (FMR1 G-rich trinucleotide expanded repeat)	–	–	9.02	8.72
